Test results published in patent publication US20200308246A1 (published 2020).
Where no end group is shown, it is not given here. [ ]: non-standard residue; d: D form. pS = N[C@@H](COP(=O)(O)O)C(=O)O

T1: MLL-pM-A6 peptide on HLA-B*07:02 (human)
T1 peptide: EPR[pS]PAHSM

T2: MLL (KMT2A), MLL-pP peptide on HLA-B*07:02 (human)
T2 peptide: RVR[pS]PTRSP

T3: MLL-pM-A1 peptide on HLA-B*07:02 (human)
T3 peptide: APR[pS]PSHSM

T4: MLL-pM-A4 peptide on HLA-B*07:02 (human)
T4 peptide: EPRAPSHSM

T5: MLL-pM-A5 peptide on HLA-B*07:02 (human)
T5 peptide: EPR[pS]ASHSM

T6: MLL-pM-A2 peptide on HLA-B*07:02 (human)
T6 peptide: EAR[pS]PSHSM

T7: MLL-pM-A3 peptide on HLA-B*07:02 (human)
T7 peptide: EPA[pS]PSHSM

T8: MLL-pM-A8 peptide on HLA-B*07:02 (human)
T8 peptide: EPR[pS]PSHAM

T9: MLL-pM-A9 peptide on HLA-B*07:02 (human)
T9 peptide: EPR[pS]PSHSA

T10: MLL-pM-A7 peptide on HLA-B*07:02 (human)
T10 peptide: EPR[pS]PSASM


Tests used:
[1] = molecular target: T1, MLL-pM-A6 peptide on HLA-B*07:02; test: activation reporter or marker
[2] = molecular target: T2, MLL (KMT2A), MLL-pP peptide on …; test: activation reporter or marker
[3] = molecular target: T3, MLL-pM-A1 peptide on HLA-B*07:02; test: activation reporter or marker
[4] = molecular target: T4, MLL-pM-A4 peptide on HLA-B*07:02; test: activation reporter or marker
[5] = molecular target: T5, MLL-pM-A5 peptide on HLA-B*07:02; test: activation reporter or marker
[6] = molecular target: T6, MLL-pM-A2 peptide on HLA-B*07:02; test: activation reporter or marker
[7] = molecular target: T7, MLL-pM-A3 peptide on HLA-B*07:02; test: activation reporter or marker
[8] = molecular target: T8, MLL-pM-A8 peptide on HLA-B*07:02; test: activation reporter or marker
[9] = molecular target: T9, MLL-pM-A9 peptide on HLA-B*07:02; test: activation reporter or marker
[10] = molecular target: T10, MLL-pM-A7 peptide on HLA-B*07:02; test: activation reporter or marker
[11] = molecular target: T2, MLL (KMT2A), MLL-pP peptide on …; test: multimer staining

Row | Binder | binding result [1] | binding result [2] | binding result [3] | binding result [4] | binding result [5] | binding result [6] | binding result [7] | binding result [8] | binding result [9] | binding result [10] | binding result [11]
1 | TCR0077 (TCR, V domains shown) Valpha: TQLLEQSPQFLSIQEGENLTVYCNSSSVFSSLQWYRQEPGEGPVLLVTVVTGGEVKKLKRLTFQFGDARKDSSLHITAAQPGDTGLYLCAGYGGGSNYKLTFGAGTRLTVKP Vbeta: EAQVTQNPRYLITVTGKKLTVTCSQNMNHEYMSWYRQDPGLGLRQIYYSMNVEVTDKGDVPEGYKVSRKEKRNFPLILESPSPNQTSLYFCASRLTGRVHGYTFGPGTRLTVL | no recognition | no recognition | no recognition | no recognition | no recognition | no recognition | recognises | recognises | no recognition | no recognition | 
2 | TCR0085 (TCR, V domains shown) Valpha: KQEVTQIPAALSVPEGENLVLNCSFTDSAIYNLQWFRQDPGKGLTSLLLIQSSQREQTSGRLNASLDKSSGRSTLYIAASQPGDSATYLCAVMLWNQGGKLIFGQGTELSVKP Vbeta: KAGVTQTPRYLIKTRGQQVTLSCSPISGHRSVSWYQQTPGQGLQFLFEYFSETQRNKGNFPGRFSGRQFSNSRSEMNVSTLELGDSALYLCASSLGRGYEQYFGPGTRLTVT | no recognition |  | no recognition | no recognition | no recognition | no recognition | no recognition | no recognition | no recognition | no recognition | recognises
